Publication PMC10319324

T1: recombinant wildtype human PI31 (Proteasome Inhibitor of 31,000 Da) (human), Q92530
T1 chain: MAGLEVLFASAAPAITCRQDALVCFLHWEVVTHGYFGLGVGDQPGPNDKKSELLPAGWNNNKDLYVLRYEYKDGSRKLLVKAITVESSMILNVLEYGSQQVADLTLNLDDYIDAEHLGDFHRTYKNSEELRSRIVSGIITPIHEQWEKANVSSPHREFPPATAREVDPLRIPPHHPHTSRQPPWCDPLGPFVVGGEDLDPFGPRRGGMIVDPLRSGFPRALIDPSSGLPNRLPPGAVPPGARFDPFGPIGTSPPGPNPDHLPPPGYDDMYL


Experiments:
[1] = molecular target: bovine 20S proteasome (bovine) (UniProt Q2YDE4)
[2] = molecular target: T1, recombinant wildtype human PI31 …; experiment: mass photometry; monomer to dimer; His-PI31 diluted to 40 nM total monomer in PBS, recorded immediately after mixing (TwoMP, Refeyn); peaks at 36 to 37 and 56 to 59 kDa; details: remark: other sources report otherwise

| inhibition of β5-specific peptide hydrolysis by 20S (143 nM 20S, 1.4 μM PI31) (times less well than wildtype hPI31) [1] | [monomer]/[M]T ratio [2] | dimer counts (mass photometry) [2] | monomer counts (mass photometry) [2] | stoichiometry N [2] | Binder |
| --- | --- | --- | --- | --- | --- |
| 3 |  |  |  |  | human PI31 D197A point mutant (natural protein) MAGLEVLFASAAPAITCRQDALVCFLHWEVVTHGYFGLGVGDQPGPNDKKSELLPAGWNNNKDLYVLRYEYKDGSRKLLVKAITVESSMILNVLEYGSQQVADLTLNLDDYIDAEHLGDFHRTYKNSEELRSRIVSGIITPIHEQWEKANVSSPHREFPPATAREVDPLRIPPHHPHTSRQPPWCDPLGPFVVGGEALDPFGPRRGGMIVDPLRSGFPRALIDPSSGLPNRLPPGAVPPGARFDPFGPIGTSPPGPNPDHLPPPGYDDMYL |
|  | 0.32 | 2060 counts | 2180 counts | 2 | recombinant wildtype human PI31 (Proteasome Inhibitor of 31,000 Da), Q92530 1-271 (natural protein) MAGLEVLFASAAPAITCRQDALVCFLHWEVVTHGYFGLGVGDQPGPNDKKSELLPAGWNNNKDLYVLRYEYKDGSRKLLVKAITVESSMILNVLEYGSQQVADLTLNLDDYIDAEHLGDFHRTYKNSEELRSRIVSGIITPIHEQWEKANVSSPHREFPPATAREVDPLRIPPHHPHTSRQPPWCDPLGPFVVGGEDLDPFGPRRGGMIVDPLRSGFPRALIDPSSGLPNRLPPGAVPPGARFDPFGPIGTSPPGPNPDHLPPPGYDDMYL |
